Assay results from publication PMC8167299, “Cardio- and reno-protective effects of dipeptidyl peptidase III in diabetic mice” (The Journal of Biological Chemistry, 2021).
Where no end group is shown, it is not given here.

What was measured:
[1] = system: U937 macrophage-like cells on a monolayer of HUVECs; test: Transmigration assay of U937 cells across a HUVEC monolayer (Transwell); type: cell-based, human; details: presence of PKC inhibitor vs DMSO
Procedure: The upper inserts (5.0 μm pore size) of Chemotaxicells (Kurabo Industries, Ltd) were coated with 100 μg fibronectin (Sigma-Aldrich). HUVECs were seeded on the insert and cultured for 48 h to form an endothelial monolayer. […] The number of U937 cells that migrated into the lower wells was counted using the Counting chamber (ERMA Inc).

RhoA = test: Pull-down assay for GTP-bound active RhoA in HUVECs; type: cell-based, human; details: presence of PKC inhibitor vs DMSO
Procedure: These experiments were performed as described previously with some modifications ([70]). Briefly, total cell lysates were obtained using the RIPA lysis buffer (50 mmol/l Tris-HCl [pH 7.5], 150 mmol/l NaCl, 0.5% deoxycholate sodium, 0.1% SDS, 1% Nonidet P-40, and 100 mM PMSF). The samples were separated by SDS-PAGE and blotted on a polyvinylidene difluoride membrane. The membrane was sequentially incubated with primary Ab and horseradish peroxidase (HRP)-labeled secondary Ab, followed by treatment with HRP substrate (Luminata Forte, Millipore Corp). The target protein band was observed using the luminescent image analyzer LAS-4000 (Fujifilm Life Science). The pull-down assay was performed as described previously with some modifications ([71]). Briefly, the cell lysates were incubated with glutathione S-transferase-fused mDia Rho-binding domain and glutathione-sepharose beads (GE Healthcare) at 2 °C to collect active GTP-bound RhoA.

SGLT2 = details: cited from earlier work
Source text: DM patients have a high mortality rate, mainly due to DM-related heart and/or kidney failure ([35], [43]). Pathologically, heart dysfunction exacerbates kidney damage, while renal injury negatively affects cardiac function. […] To reduce diabetic complications in tissues and organs, particularly in the heart and kidney, great effort has been made to develop effective medicines and therapeutics for DM. Among these, much attention ...

C3a receptor (C3aR) = molecular target: T1, C3a receptor (C3aR) (Homo sapiens, UniProt Q16581); test: Cell surface attachment of FITC-Peptide 2 on HUVECs through C3aR; type: binding; details: C3aR-knockdown (siC3aR #2) vs scramble RNA-transfected HUVECs; 2 h at 4 °C
T1 construct: host or cells: HUVECs
T1 sequence (Q16581 1-482): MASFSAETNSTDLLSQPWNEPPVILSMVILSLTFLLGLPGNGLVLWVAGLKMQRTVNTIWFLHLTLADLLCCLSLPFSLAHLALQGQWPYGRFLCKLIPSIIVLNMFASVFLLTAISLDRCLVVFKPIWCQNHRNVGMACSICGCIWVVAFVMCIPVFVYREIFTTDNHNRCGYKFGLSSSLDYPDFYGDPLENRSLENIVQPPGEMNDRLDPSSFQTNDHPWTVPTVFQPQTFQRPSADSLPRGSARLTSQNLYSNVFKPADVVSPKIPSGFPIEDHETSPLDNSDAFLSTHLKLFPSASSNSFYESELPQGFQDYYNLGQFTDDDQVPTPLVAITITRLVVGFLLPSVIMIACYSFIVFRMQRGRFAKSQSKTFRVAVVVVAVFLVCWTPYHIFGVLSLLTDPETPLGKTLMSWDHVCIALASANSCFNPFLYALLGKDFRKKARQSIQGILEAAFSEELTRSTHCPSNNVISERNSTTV
Procedure: The expression level of C3a receptor 1 (C3aR) was evaluated by semiquantitative PCR. mRNA was extracted using TRIzol RNA isolation reagent (Thermo Fisher Scientific), and cDNA was synthesized using ReverTra Ace (Toyobo). PCR was performed using rTaq DNA polymerase (TaKaRa Bio Inc). The band densities of PCR products were quantified using the ImageJ software. The mRNA expression level of C3aR was adjusted to that of β-actin as an internal control. Primer sequences for the experiments were as follows: C3aR forward 5′-[…]-3′ and reverse 5′-[…]-3′; β-actin forward 5′-[…]-3′ and reverse 5′-[…]-3′. To silence C3aR expression in HUVECs, siRNA against C3aR (#1: 5′-[…]-3′, #2: 5′-[…]-3′) was transfected into the cells with RNAiMAX (Thermo Fisher Scientific), and the cells were cultured for 2 days.
FITC-conjugated Peptide 2 was generated by Biologica Co. HUVECs, in which C3aR was or was not knocked down, were incubated with the indicated concentrations of FITC-Peptide 2 for 2 h at 4 °C. Subsequently, the cells were washed with PBS three times and labeled with tetramethylrhodamine-WGA (Thermo Fisher Scientific). Following fixation with 4% paraformaldehyde, the attached peptides on the cell surface were observed using a Leica SP8 microscope (Leica Microsystems).

db/m mice = test: Peptide 2 or control peptide administration for 8 weeks in nondiabetic db/m mice; type: in vivo, mouse; details: for Heart rate during echocardiography: db/m mice, isoflurane anesthesia, average ± SD, n= 7
db/db mice [2] = details: mouse, in vivo, iv
Procedure: We examined the in vivo cytotoxicity of Peptide 2 by intravenous injection of this peptide (0.5 μg/g body weight) into mice.
Following euthanasia of the mice by cervical dislocation, they were perfused with PBS, and the heart and kidney were extracted. The extracted organs were snap-frozen in liquid nitrogen within a block of water-soluble medium (Surgipath FSC 22, Leica Biosystems) or fixed with 4% paraformaldehyde and subsequently embedded in paraffin blocks. Regarding the frozen samples, they were sectioned in 10 μm thick using a cryostat (Leica Biosystems), fixed with 4% paraformaldehyde on top of poly-L-lysine-coated slides, permeabilized with 0.1% Triton X-100, and blocked with 1% bovine serum albumin (BSA). Primary antibodies (Abs) (see below) were applied in the BSA blocking solution at 4 °C overnight, followed by 1 h incubation at room temperature with fluorescent dye-labeled secondary Abs. Paraffin sections, 4 μm thick, were stained with H-E, WGA (1:500 dilution) (Thermo Fisher Scientific) or Sirius red (1:1000 dilution) (Fujifilm Wako Pure Chemical Corporation) using standard techniques. Confocal images were taken using a Leica SP8 microscope (Leica Microsystems). […] As described previously ([68]), at least three random fields were selected from the four sections in each heart to quantify the extent of fibrotic or immunopositive area using ImageJ software.

db/db mice [3] = system: db/db mice
[4] = system: AngII-stimulated hypertensive mice; details: AngII-stimulated hypertensive vs normotensive mice; cited from earlier work
[5] = nondiabetic db/m mice, 8-week administration
[6] = DPPIII 10 μg/g iv, after 8 weeks
[7] = DPPIII 10 μg/g iv, after 8 weeks, vs PBS

## Cn1c2ccccc2c2c3c(c4c5ccccc5n(CCC#N)c4c21)CNC3=O [PKC inhibitor, Gö6976]
[1]
  Effect on Peptide-2-induced U937 transendothelial migration: inhibited in the presence of PKC inhibitor
RhoA
  Effect on Peptide-2-induced RhoA activation: inhibited in the presence of PKC inhibitor

## Cc1ccc([C@@H]2O[C@H](CO)[C@@H](O)[C@H](O)[C@H]2O)cc1Cc1ccc(-c2ccc(F)cc2)s1 [canagliflozin]
SGLT2
  Heart failure and DKD in DM patients: improves heart failure and DKD

## FITC-Peptide 2: fluorescein isothiocyanate (FITC)-conjugated Peptide 2 (RLLWENGNL; also: FITC-conjugated, position not given here)
C3a receptor (C3aR)
  FITC-Peptide 2 attachment on the cells (fluorescence microscopy): significantly reduced in C3aR-knockdown HUVECs

## IAFSQYLQK [control peptide, reference compound]
db/m mice; week 0
  Heart rate during echocardiography: 410 ± 30
db/m mice; week 4
  Heart rate during echocardiography: 423 ± 32
db/m mice; week 8
  Heart rate during echocardiography: 407 ± 30

## RLLWENGNL [Peptide 2]
db/m mice; week 0
  Heart rate during echocardiography: 417 ± 32
db/m mice; week 4
  Heart rate during echocardiography: 402 ± 41
db/m mice; week 8
  Heart rate during echocardiography: 414 ± 42
db/m mice; [5]
  Body weight, blood glucose level, or hemodynamics: did not affect
  Deteriorative effects on the organs (heart and kidney): not observed in db/m mice
db/db mice [2]
  Desmin deposition and microvasculature disruption in the glomeruli: highly enhanced

B1: dipeptidyl peptidase III (protein, UniProt Q9NY33 2-737, looked up)
Dipeptidyl peptidase 3: ADTQYILPNDIGVSSLDCREAFRLLSPTERLYAYHLSRAAWYGGLAVLLQTSPEAPYIYALLSRLFRAQDPDQLRQHALAEGLTEEEYQAFLVYAAGVYSNMGNYKSFGDTKFVPNLPKEKLERVILGSEAAQQHPEEVRGLWQTCGELMFSLEPRLRHLGLGKEGITTYFSGNCTMEDAKLAQDFLDSQNLSAYNTRLFKEVDGEGKPYYEVRLASVLGSEPSLDSEVTSKLKSYEFRGSPFQVTRGDYAPILQKVVEQLEKAKAYAANSHQGQMLAQYIESFTQGSIEAHKRGSRFWIQDKGPIVESYIGFIESYRDPFGSRGEFEGFVAVVNKAMSAKFERLVASAEQLLKELPWPPTFEKDKFLTPDFTSLDVLTFAGSGIPAGINIPNYDDLRQTEGFKNVSLGNVLAVAYATQREKLTFLEEDDKDLYILWKGPSFDVQVGLHELLGHGSGKLFVQDEKGAFNFDQETVINPETGEQIQSWYRSGETWDSKFSTIASSYEECRAESVGLYLCLHPQVLEIFGFEGADAEDVIYVNWLNMVRAGLLALEFYTPEAFNWRQAHMQARFVILRVLLEAGEGLVTITPTTGSDGRPDARVRLDRSKIRSVGKPALERFLRRLQVLKSTGDVAGGRALYEGYATVTDAPPECFLTLRDTVLLRKESRKLIVQPNTRLEGSDVQLLEYEASAAGLIRSFSERFPEDGPELEEILTQLATADARFWKGPSEAPSGQA
notes: aminopeptidase that cleaves specific dipeptides from the N terminus of relatively small peptides
db/db mice [3]; DPPIII 10 μg/g body weight iv three times weekly for 8 weeks, vs PBS
  Body weight and blood glucose level (increase during the experimental period): unaffected by DPPIII treatment
db/db mice [3]; DPPIII 10 μg/g iv, 8 weeks
  Left ventricular dimensions and systolic functions (echocardiography): not significantly changed
db/db mice [3]; DPPIII 10 μg/g iv, 8 weeks, 24 h urine, SDS-PAGE, Coomassie staining
  Urine albumin excretion (albuminuria): the increase was blocked by DPPIII treatment
db/db mice [3]; DPPIII 10 μg/g iv, 8 weeks, vs PBS
  Cardiac diastolic functions (pulse-wave and tissue Doppler echocardiography): improved the impaired diastolic functions
db/db mice [3]; [6]
  Desmin deposition in the glomeruli: almost totally reversed by DPPIII treatment
  Disruption of glomerular microvasculature (CD31 staining): recovered
  Morphology and size of cardiomyocytes (H-E and WGA staining): unchanged by DPPIII treatment
  Plasma cholesterol or triglyceride levels: no effects
  Podocyte foot process damage (electron microscopy): ameliorated by DPPIII treatment
db/db mice [3]; [7]
  Cardiac fibrosis (Sirius red staining): reduced by DPPIII treatment
  Infiltration of CD68-positive inflammatory cells in the heart: reversed
db/db mice [3]; after 8-week DPPIII administration, vs PBS-infused db/db mice
  Plasma concentration of Peptide 2 (SRM): clearly reduced
[4]
  Blood-pressure-lowering effect: BP-lowering effects were observed specifically in AngII-stimulated hypertensive mice, but not in normotensive mice
